Our source for the activity values is patent US20120192301.

For series [1], the system named is SBS 26334 ZFN (engineered). Put plainly: cell_activity. The note with it: Cel-I indels, pair 26323/26334, K562, no donor.
Series [2] deals with SBS 26323 ZFN (engineered). Put plainly: cell_activity. The note with it: Cel-I indels, pair 26323/26334, K562, no donor.

As for “AACAGGTAAGCTCCATTGTGCTTATATC (double strand) [SNCA site 36 (25358/26334)]”, the activity in series [1] is below 45%.
Sequence “CACACCATGCACCACTCCCTCCTTGGTT (double strand) [SNCA site 37 (26323/26327/26331)]” came in with an activity in series [2] below 45%.
